Tested on: Escherichia coli TOP10
Assay: shrunken log2 fold change of peptide-encoding DNA abundance (4.5 h post-induction vs induction); higher = less antimicrobial activity (less host growth inhibition)
Conditions: time post-induction: 4.5 h; library: site-saturation at positions 5, 18, 19, 20
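Further: peptides expressed intracellularly from a pBAD plasmid library in pooled LB shake-flask culture, induced with 0.3% L-arabinose, DNA abundance read by NGS, three biological replicates, DESeq2 with apeglm shrinkage.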

Point of comparison: RRIRQRPPRLPRPRPRPGFHPRP, “shrunken log2 fold change” value 0.00101. Against it:
- RRIRPRPPRLPRPRPRPPGTPRP — higher, 0.317
- RRIRVRPPRLPRPRPRPPEKPRP — within 0.2 log units, 0.0629
- RRIRPRPPRLPRPRPRPMTTPRP — within 0.2 log units, -0.104
- RRIRSRPPRLPRPRPRPTNGPRP — within 0.2 log units, 0.0899
- RRIRKRPPRLPRPRPRPIEQPRP — within 0.2 log units, -0.0195
- RRIRLRPPRLPRPRPRPGIAPRP — lower, -0.206
- RRIRDRPPRLPRPRPRPCFIPRP — within 0.2 log units, -0.13
- RRIRWRPPRLPRPRPRPFEIPRP — within 0.2 log units, 0.0217
- RRIRDRPPRLPRPRPRPKAYPRP — within 0.2 log units, 0.053
- RRIRVRPPRLPRPRPRPSAFPRP — within 0.2 log units, 0.0827
- RRIRIRPPRLPRPRPRPMCGPRP — within 0.2 log units, -0.0603
- RRIRLRPPRLPRPRPRPPKDPRP — within 0.2 log units, 0.137
- RRIRKRPPRLPRPRPRPEFYPRP — within 0.2 log units, -0.0131
- RRIRSRPPRLPRPRPRPENEPRP — within 0.2 log units, -0.0857
- RRIRQRPPRLPRPRPRPSDSPRP — within 0.2 log units, -0.0885
- RRIRKRPPRLPRPRPRPMYHPRP — within 0.2 log units, -0.0356
- RRIRFRPPRLPRPRPRPHMIPRP — lower, -0.395
- RRIRGRPPRLPRPRPRPNSTPRP — higher, 0.344
- RRIRYRPPRLPRPRPRPNSAPRP — lower, -0.805
- RRIRMRPPRLPRPRPRPQKVPRP — higher, 0.238
- RRIRFRPPRLPRPRPRPKLSPRP — lower, -0.258
- RRIRIRPPRLPRPRPRPEYWPRP — within 0.2 log units, -0.0686
- RRIRTRPPRLPRPRPRPIQKPRP — within 0.2 log units, -0.00925
- RRIRTRPPRLPRPRPRPGEKPRP — within 0.2 log units, -0.0135
- RRIRNRPPRLPRPRPRPPWGPRP — higher, 0.254
- RRIRFRPPRLPRPRPRPQAFPRP — within 0.2 log units, -0.175
- RRIRPRPPRLPRPRPRPYFVPRP — lower, -0.488
- RRIRGRPPRLPRPRPRPERFPRP — higher, 0.969
- RRIRHRPPRLPRPRPRPRNYPRP — lower, -0.282
- RRIRIRPPRLPRPRPRPKNSPRP — lower, -0.503
- RRIRHRPPRLPRPRPRPIMCPRP — lower, -0.245
- RRIRFRPPRLPRPRPRPRSKPRP — within 0.2 log units, 0.0303
- RRIRDRPPRLPRPRPRPTWCPRP — within 0.2 log units, 0.18
- RRIRMRPPRLPRPRPRPGMLPRP — within 0.2 log units, -0.0146
- RRIRTRPPRLPRPRPRPIFPPRP — within 0.2 log units, 0.166
- RRIRQRPPRLPRPRPRPMKKPRP — within 0.2 log units, 0.0152
- RRIRERPPRLPRPRPRPLYRPRP — lower, -0.474
- RRIRMRPPRLPRPRPRPIANPRP — higher, 0.333
- RRIRHRPPRLPRPRPRPITLPRP — within 0.2 log units, 0.0184
- RRIRRRPPRLPRPRPRPSNCPRP — lower, -0.252
- RRIRTRPPRLPRPRPRPTRCPRP — within 0.2 log units, -0.104
- RRIRARPPRLPRPRPRPCDQPRP — within 0.2 log units, -0.00754
- RRIRSRPPRLPRPRPRPVMDPRP — lower, -0.496
- RRIRYRPPRLPRPRPRPCNEPRP — within 0.2 log units, 0.0341
- RRIRARPPRLPRPRPRPEVDPRP — higher, 0.935
- RRIRPRPPRLPRPRPRPQMIPRP — lower, -0.594
- RRIRQRPPRLPRPRPRPIVPPRP — within 0.2 log units, 0.053
- RRIRWRPPRLPRPRPRPMMKPRP — within 0.2 log units, 0.155
- RRIRLRPPRLPRPRPRPDWWPRP — within 0.2 log units, 0.0919
- RRIRSRPPRLPRPRPRPKNRPRP — within 0.2 log units, 0.0193
- RRIRTRPPRLPRPRPRPCLYPRP — lower, -0.342
- RRIRCRPPRLPRPRPRPSDRPRP — lower, -0.473
- RRIRIRPPRLPRPRPRPPMEPRP — within 0.2 log units, -0.0294
- RRIRLRPPRLPRPRPRPPNQPRP — within 0.2 log units, 0.0881
- RRIRKRPPRLPRPRPRPVSCPRP — within 0.2 log units, 0.129
- RRIRYRPPRLPRPRPRPLEVPRP — lower, -0.335
- RRIRERPPRLPRPRPRPMAHPRP — within 0.2 log units, -0.0343
- RRIRARPPRLPRPRPRPHADPRP — higher, 0.981
- RRIRCRPPRLPRPRPRPGQCPRP — within 0.2 log units, -0.11
- RRIRPRPPRLPRPRPRPCSNPRP — within 0.2 log units, 0.137
- RRIRRRPPRLPRPRPRPARKPRP — higher, 0.58
- RRIRVRPPRLPRPRPRPHNKPRP — lower, -0.63
- RRIRRRPPRLPRPRPRPDRAPRP — higher, 0.322
- RRIRSRPPRLPRPRPRPSDLPRP — lower, -0.254
- RRIRLRPPRLPRPRPRPLKRPRP — within 0.2 log units, -0.0716
- RRIRMRPPRLPRPRPRPTDPPRP — within 0.2 log units, 0.00799
- RRIRHRPPRLPRPRPRPDHWPRP — within 0.2 log units, -0.0694
- RRIRWRPPRLPRPRPRPPLCPRP — higher, 0.668
- RRIRKRPPRLPRPRPRPQYPPRP — within 0.2 log units, 0.131
- RRIRQRPPRLPRPRPRPWRSPRP — within 0.2 log units, 0.0241
- RRIRMRPPRLPRPRPRPDNMPRP — within 0.2 log units, 0.0905
- RRIRLRPPRLPRPRPRPVKCPRP — within 0.2 log units, -0.122
- RRIRKRPPRLPRPRPRPVMYPRP — within 0.2 log units, -0.144
- RRIRTRPPRLPRPRPRPECFPRP — within 0.2 log units, 0.146
- RRIRERPPRLPRPRPRPEYGPRP — lower, -0.315
- RRIRIRPPRLPRPRPRPKDFPRP — lower, -0.457
- RRIRARPPRLPRPRPRPNTMPRP — lower, -0.223
- RRIRERPPRLPRPRPRPAEWPRP — within 0.2 log units, 0.143
- RRIRCRPPRLPRPRPRPYGWPRP — lower, -0.27
- RRIRMRPPRLPRPRPRPKMSPRP — within 0.2 log units, 0.123
- RRIRNRPPRLPRPRPRPGTWPRP — higher, 0.218
- RRIRIRPPRLPRPRPRPMGEPRP — within 0.2 log units, -0.0442
- RRIRFRPPRLPRPRPRPDELPRP — within 0.2 log units, 0.0112
- RRIRMRPPRLPRPRPRPCIMPRP — lower, -0.533
- RRIRGRPPRLPRPRPRPAYRPRP — within 0.2 log units, 0.181
- RRIRDRPPRLPRPRPRPQQAPRP — within 0.2 log units, 0.0257
- RRIRPRPPRLPRPRPRPRWRPRP — higher, 0.542
- RRIRWRPPRLPRPRPRPSWRPRP — within 0.2 log units, 0.0809
- RRIRKRPPRLPRPRPRPSHQPRP — within 0.2 log units, -0.146
- RRIRHRPPRLPRPRPRPGWPPRP — higher, 0.424
- RRIRMRPPRLPRPRPRPPWNPRP — higher, 0.369
- RRIRVRPPRLPRPRPRPIEGPRP — within 0.2 log units, -0.0117
- RRIRIRPPRLPRPRPRPYSWPRP — lower, -0.264
- RRIRWRPPRLPRPRPRPILYPRP — lower, -0.515
- RRIRPRPPRLPRPRPRPWTRPRP — within 0.2 log units, 0.0201
- RRIRCRPPRLPRPRPRPRRSPRP — higher, 0.762
- RRIRSRPPRLPRPRPRPHDSPRP — within 0.2 log units, 0.0375
- RRIRRRPPRLPRPRPRPMKHPRP — within 0.2 log units, -0.191
- RRIRARPPRLPRPRPRPPRKPRP — higher, 1.1
- RRIRNRPPRLPRPRPRPLYPPRP — lower, -0.586
- RRIRFRPPRLPRPRPRPNYYPRP — lower, -0.613
- RRIRPRPPRLPRPRPRPWGRPRP — within 0.2 log units, 0.122
- RRIRNRPPRLPRPRPRPCQEPRP — within 0.2 log units, 0.15
- RRIRIRPPRLPRPRPRPKGRPRP — within 0.2 log units, 0.182
- RRIRLRPPRLPRPRPRPSLHPRP — lower, -0.471
- RRIRFRPPRLPRPRPRPRAAPRP — higher, 0.408
- RRIRGRPPRLPRPRPRPNNFPRP — higher, 0.291
- RRIRSRPPRLPRPRPRPPCMPRP — higher, 0.464
- RRIRARPPRLPRPRPRPDKKPRP — within 0.2 log units, 0.0318
- RRIRVRPPRLPRPRPRPHCAPRP — within 0.2 log units, -0.179
- RRIRYRPPRLPRPRPRPQRIPRP — within 0.2 log units, -0.0956
- RRIRGRPPRLPRPRPRPHKWPRP — within 0.2 log units, 0.183
- RRIRWRPPRLPRPRPRPAPWPRP — higher, 0.319
- RRIRSRPPRLPRPRPRPIQHPRP — lower, -0.204
- RRIRTRPPRLPRPRPRPIMNPRP — within 0.2 log units, 0.0436
- RRIRNRPPRLPRPRPRPEKFPRP — within 0.2 log units, -0.165
- RRIRRRPPRLPRPRPRPATIPRP — within 0.2 log units, -0.0623
- RRIRPRPPRLPRPRPRPWLGPRP — higher, 0.256
- RRIRKRPPRLPRPRPRPVNIPRP — within 0.2 log units, -0.0139
- RRIRGRPPRLPRPRPRPFEIPRP — within 0.2 log units, -0.017
- RRIRFRPPRLPRPRPRPVHWPRP — within 0.2 log units, -0.105
- RRIRPRPPRLPRPRPRPFRAPRP — within 0.2 log units, 0.116
- RRIRERPPRLPRPRPRPFTYPRP — within 0.2 log units, -0.0534
- RRIRKRPPRLPRPRPRPNCNPRP — within 0.2 log units, 0.00173
- RRIRGRPPRLPRPRPRPARFPRP — higher, 0.683
- RRIRGRPPRLPRPRPRPARVPRP — higher, 0.614
- RRIRDRPPRLPRPRPRPWFKPRP — lower, -0.203
- RRIRPRPPRLPRPRPRPMWQPRP — within 0.2 log units, 0.0423
- RRIRLRPPRLPRPRPRPTPIPRP — higher, 0.3
- RRIRPRPPRLPRPRPRPDTWPRP — within 0.2 log units, 0.0185
- RRIRRRPPRLPRPRPRPFVPPRP — within 0.2 log units, 0.127
- RRIRTRPPRLPRPRPRPRPKPRP — higher, 0.303
- RRIRSRPPRLPRPRPRPDKPPRP — lower, -0.266
- RRIRNRPPRLPRPRPRPRRRPRP — higher, 0.558
- RRIRERPPRLPRPRPRPNVFPRP — within 0.2 log units, -0.189
- RRIRLRPPRLPRPRPRPWLFPRP — within 0.2 log units, 0.193
- RRIRNRPPRLPRPRPRPHGAPRP — higher, 0.245
- RRIRKRPPRLPRPRPRPLQFPRP — within 0.2 log units, -0.076
- RRIRCRPPRLPRPRPRPKMHPRP — within 0.2 log units, -0.121
- RRIRCRPPRLPRPRPRPARDPRP — higher, 1.84
- RRIRLRPPRLPRPRPRPFICPRP — lower, -0.426
- RRIRDRPPRLPRPRPRPTNEPRP — higher, 0.265
- RRIRPRPPRLPRPRPRPETPPRP — within 0.2 log units, 0.152
- RRIRTRPPRLPRPRPRPHFYPRP — lower, -0.224
- RRIRTRPPRLPRPRPRPNMYPRP — lower, -0.637
- RRIRPRPPRLPRPRPRPGQRPRP — higher, 0.44
- RRIRPRPPRLPRPRPRPNHAPRP — within 0.2 log units, -0.162
- RRIRNRPPRLPRPRPRPRWFPRP — within 0.2 log units, 0.173
- RRIRRRPPRLPRPRPRPIDLPRP — within 0.2 log units, -0.115
